In assay [1] the target is T1, full-length beta-Catenin (Uniprot ID P35222) (Homo sapiens (Human), UniProt P35222 2-781).
T1 construct: The AlphaScreen assay used a Histidine (Nickel Chelate) detection kit, so a His tag is likely, but no tag is described; also called B-Catenin; bCat
T1 sequence: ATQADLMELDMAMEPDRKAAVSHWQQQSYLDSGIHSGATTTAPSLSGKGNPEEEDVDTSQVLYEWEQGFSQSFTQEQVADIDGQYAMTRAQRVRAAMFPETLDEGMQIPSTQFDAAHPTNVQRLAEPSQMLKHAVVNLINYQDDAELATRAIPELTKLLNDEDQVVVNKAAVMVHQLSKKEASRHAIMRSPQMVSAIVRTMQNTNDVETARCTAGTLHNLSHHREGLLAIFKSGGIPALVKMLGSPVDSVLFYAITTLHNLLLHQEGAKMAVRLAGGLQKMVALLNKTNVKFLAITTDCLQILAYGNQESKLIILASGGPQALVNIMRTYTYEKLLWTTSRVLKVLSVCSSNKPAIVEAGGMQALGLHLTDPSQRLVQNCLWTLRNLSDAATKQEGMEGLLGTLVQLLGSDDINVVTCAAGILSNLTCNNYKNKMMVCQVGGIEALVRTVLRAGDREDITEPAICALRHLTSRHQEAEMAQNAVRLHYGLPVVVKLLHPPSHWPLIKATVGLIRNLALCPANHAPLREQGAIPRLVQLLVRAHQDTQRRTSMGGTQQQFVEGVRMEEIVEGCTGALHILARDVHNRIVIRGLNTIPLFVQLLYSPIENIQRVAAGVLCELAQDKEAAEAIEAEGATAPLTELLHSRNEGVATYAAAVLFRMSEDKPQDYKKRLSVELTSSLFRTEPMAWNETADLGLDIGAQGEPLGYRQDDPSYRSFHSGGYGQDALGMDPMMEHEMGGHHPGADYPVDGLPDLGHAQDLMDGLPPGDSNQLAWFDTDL
The assay can be described thus: AlphaScreen competition: full-length beta-catenin + biotin-TCF4(10-53) probe, peptide titrated. How it is done: (§1) Equal volume of the titrated peptide was added to the plate and incubated for 15 minutes at 20° C. Then 4 uL of donor and 4 uL acceptor beads at 10 ug/mL were added to the plate, for a 16 uL reaction pool and protected from light for 60 minutes at 20° C. prior to read. Reads were performed on a CLARIOstar plate reader (BMG Labtech) in duplicate, and data were fitted to a 1:1 binding model with hill slope using an in-house script. All provided concentrations are final concentrations.

Assay [2] concerns the target T2, full-length beta-Catenin (Uniprot ID P35222) (Homo sapiens (Human), UniProt P35222 2-781).
T2 construct: also called B-Catenin; bCat
T2 sequence: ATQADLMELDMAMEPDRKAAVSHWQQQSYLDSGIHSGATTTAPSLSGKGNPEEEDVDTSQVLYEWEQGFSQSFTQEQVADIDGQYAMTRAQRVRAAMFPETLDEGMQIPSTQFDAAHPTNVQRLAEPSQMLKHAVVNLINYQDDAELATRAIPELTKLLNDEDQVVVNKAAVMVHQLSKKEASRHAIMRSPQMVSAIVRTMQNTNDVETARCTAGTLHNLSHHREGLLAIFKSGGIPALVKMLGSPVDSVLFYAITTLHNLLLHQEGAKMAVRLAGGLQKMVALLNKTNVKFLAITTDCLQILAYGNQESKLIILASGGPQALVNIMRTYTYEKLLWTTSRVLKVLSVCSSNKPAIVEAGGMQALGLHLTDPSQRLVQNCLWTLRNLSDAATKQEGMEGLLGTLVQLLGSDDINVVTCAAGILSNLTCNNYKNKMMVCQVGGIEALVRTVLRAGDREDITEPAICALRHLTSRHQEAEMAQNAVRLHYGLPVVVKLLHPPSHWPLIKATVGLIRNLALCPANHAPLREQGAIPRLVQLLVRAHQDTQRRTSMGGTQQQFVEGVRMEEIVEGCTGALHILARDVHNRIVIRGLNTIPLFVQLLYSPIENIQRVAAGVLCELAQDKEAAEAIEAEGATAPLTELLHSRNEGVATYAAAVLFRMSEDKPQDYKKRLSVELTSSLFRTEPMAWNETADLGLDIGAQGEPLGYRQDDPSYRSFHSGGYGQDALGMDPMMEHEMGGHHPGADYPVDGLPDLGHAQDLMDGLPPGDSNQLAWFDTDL
As to the kind of experiment: Alphascreen competition; biotin-TCF4(10-53) probe with full-length beta-catenin. How it is done:
as §1
On the technique in general: Alpha assays give light when donor and acceptor beads are brought close together.

Starred links: 1 amine or outer side, 2 acyl side, 3 side chain; linkers in the order of their positions; H or OH if unused. Positions of bridges follow the written chain, without caps; N, C: chain ends. Non-standard residues stand in square brackets, D forms with d. Primed or numbered codes have the meaning given here. B5(4) = 2,2-bis(4-pentenyl)glycine = 2-amino-2-(pent-4-en-1-yl)hept-6-enoic acid (stitching residue), C=CCCCC(CCCC=C)(N[*:1])C(=O)[*:2]; B5(5) = 2,2-bis(4-pentenyl)glycine, 2-amino-2-(pent-4-en-1-yl)hept-6-enoic acid (stitching residue), C=CCCCC(CCCC=C)(N[*:1])C(=O)[*:2]; PyrS(3) = (S)-1-((allyloxy)carbonyl)-3-aminopyrrolidine-3-carboxylic acid, stapling residue, C=CCOC(=O)N1CC[C@@](N[*:1])(C(=O)[*:2])C1; B5(33) = 2-amino-2-(pent-4-en-1-yl)hept-6-enoic acid (bis-pentenylglycine, two olefin side chains), C=CCCCC(CCCC=C)(N[*:1])C(=O)[*:2]; PyrS″ = (S)-1-((allyloxy)carbonyl)-3-aminopyrrolidine-3-carboxylic acid (stapling residue), C=CCOC(=O)N1CC[C@@](N[*:1])(C(=O)[*:2])C1; SeN = (S)-5-(((allyloxy)carbonyl)(methyl)amino)-2-amino-2-methylpentanoic acid, C=CCOC(=O)N(C)CCC[C@](C)(N[*:1])C(=O)[*:2]; B5(3) = 2,2-bis(4-pentenyl)glycine (stitching residue), C=CCCCC(CCCC=C)(N[*:1])C(=O)[*:2]; B5 = 2-amino-2-(pent-4-en-1-yl)hept-6-enoic acid, C=CCCCC(CCCC=C)(N[*:1])C(=O)[*:2]; Phe(3-CF3) = N[C@@H](Cc1cccc(C(F)(F)F)c1)C(=O)O; Bip = N[C@@H](Cc1ccc(-c2ccccc2)cc1)C(=O)O; 2Nal = N[C@@H](Cc1ccc2ccccc2c1)C(=O)O; hTyr = N[C@@H](CCc1ccc(O)cc1)C(=O)O; αAllylPro = C=CC[C@@]1(C(=O)O)CCCN1; d(αMeL) = CC(C)C[C@@](C)(N)C(=O)O; hPhe = N[C@@H](CCc1ccccc1)C(=O)O; 2Pal = N[C@@H](Cc1ccccn1)C(=O)O; 4Pal = N[C@@H](Cc1ccncc1)C(=O)O; R8 = C=CCCCCCC[C@@](C)(N)C(=O)O; S8 = C=CCCCCCC[C@](C)(N)C(=O)O

What is called EC50 is the midpoint of the concentration-response curve.

B1: I-232 (peptide)
peptide: Ac-[αAllylPro]DA[B5(4)]D[2Nal]AAFV[S8]FWQ-NH2
modifications: staple 1-4, 4-11
notes: Stapled peptide composition; also called Ac-PL3-Asp-Ala-B5-Asp-2NapA-Ala-Ala-Phe-Val-S8-Phe-Trp-Gln-NH2
B1: in assay [1], the concentration giving a half-maximal response (EC50) is 7.64 µM.

B2: I-222 (peptide)
peptide: Ac-FDA[R8]DDAAFT[PyrS″]FWQ-NH2
modifications: staple 4-11
notes: Stapled peptide composition; also called Ac-Phe-Asp-Ala-R8-Asp-Asp-Ala-Ala-Phe-Thr-PyrS-Phe-Trp-Gln-NH2
For the molecule B2, the EC50 in assay [1] stood at 6.58 µM.

B3: I-239 (peptide)
peptide: Ac-[αAllylPro]DA[B5(5)]DDAA[Phe(3-CF3)]V[S8]FWQ-NH2
modifications: staple 1-4, 4-11; not fully specified; printed as Ac-PL3-Asp-Ala-B5-Asp-Asp-Ala-Ala-3F3MeF-Val-S8-Phe-Trp-Gln-NH2
notes: Stapled peptide composition; also called Ac-PL3-Asp-Ala-B5-Asp-Asp-Ala-Ala-3F3MeF-Val-S8-Phe-Trp-Gln-NH2
For B3, the EC50 in assay [1] was 0.267 µM. Ac-FDA[R8]DDAA[hPhe]V[PyrS(3)]FWQ-NH2 (staple 4-11, Stapled peptide composition) [I-118]: the EC50 in assay [2] came out at 4.36 µM.

B4: I-235 (peptide)
peptide: Ac-[αAllylPro]DA[B5(3)]D[Bip]AAFV[S8]FWQ-NH2
modifications: staple 1-4, 4-11
notes: Stapled peptide composition; also called Ac-PL3-Asp-Ala-B5-Asp-Bip-Ala-Ala-Phe-Val-S8-Phe-Trp-Gln-NH2
Consider B4, for which the 50% effective concentration (EC50) in assay [1] was found to be 7.34 µM.

B5: I-223 (peptide)
peptide: Ac-FDA[R8]DDAAFT[PyrS″]FWQ-NH2
modifications: staple 4-11
notes: as for B2
For B5, in assay [1], the EC50 was found to be 4.12 µM. Consider Ac-FDA[R8]DDAA[hTyr]V[PyrS(3)]FWQ-NH2 (staple 4-11, Stapled peptide composition) [I-120], for which the response in assay [2] was half-maximal at 4.55 µM (EC50).

B6: I-124 (peptide)
peptide: XDAXDNAAFVXFWQ
modifications: not fully specified; as printed: Ac-PL3-Asp-Ala-B5-Asp-Asn-Ala-Ala-Phe-Val-S8-Phe-Trp-Gln-NH2; staples PL3(1)-B5(4) and B5(4)-S8(11)
notes: Stitched (two-staple) peptide composition
Consider B6, for which the half-maximal effective concentration (EC50) in assay [2] is 1.28 µM.

B7: I-126 (peptide)
peptide: Ac-[αAllylPro]DA[B5(33)]DQAAFV[S8]FWQ-NH2
modifications: staple 1-4, 4-11
notes: as for B6
The molecule B7 had a 50% effective concentration (EC50) in assay [2] of 1.48 µM.

B8: I-216 (peptide)
peptide: Ac-[αAllylPro]DA[B5(4)]D[d(αMeL)]AAFV[S8]FWQ-NH2
modifications: staple 1-4, 4-11
notes: Stapled peptide composition; also called Ac-PL3-Asp-Ala-B5-Asp-DaMeL-Ala-Ala-Phe-Val-S8-Phe-Trp-Gln-NH2
In the case of B8, the EC50 in assay [1] was no less than 10 µM.

B9: I-214 (peptide)
peptide: Ac-[αAllylPro]DA[B5][4Pal]EAAFV[S8]FWQ-NH2
modifications: staple 1-4, 4-11
notes: Stapled (stitched) peptide composition; also called Ac-PL3-Asp-Ala-B5-4pyrA-Glu-Ala-Ala-Phe-Val-S8-Phe-Trp-Gln-NH2
On to B9, for which the EC50 in assay [1] was 7.21 µM.

B10: I-238 (peptide)
peptide: Ac-[αAllylPro]DA[B5(3)]DDAA[Phe(3-CF3)]V[S8]FWQ-NH2
modifications: staple 1-4, 4-11
notes: as for B3
As for B10, the concentration for a half-maximal effect (EC50) in assay [1] worked out at 0.267 µM. For the molecule Ac-FDA[R8]D[2Nal]AAFV[PyrS″]FWQ-NH2 (staple 4-11; also: earlier-eluting HPLC peak (staple isomer), Stapled peptide composition) [I-115], the EC50 in assay [2] was 4.78 µM.

B11: I-215 (peptide)
peptide: Ac-[αAllylPro]DA[B5]D[d(αMeL)]AAFV[S8]FWQ-NH2
modifications: staple 1-4, 4-11
notes: as for B8
On to B11, for which, in assay [1], the concentration giving a half-maximal response (EC50) is no less than 10 µM.

B12: I-130 (peptide)
peptide: Ac-[αAllylPro]DA[B5(4)]DEAAFV[SeN]FWQ-NH2
modifications: staple 1-4, 4-11
notes: as for B6
Molecule B12 came in with an EC50 in assay [2] of 0.797 µM.

B13: I-119 (peptide)
peptide: Ac-FDA[R8]DDAA[hTyr]V[PyrS(3)]FWQ-NH2
modifications: staple 4-11
notes: Stapled peptide composition; same description as I-120, separate earlier-eluting HPLC peak (staple isomer)
As for B13, it took 4.94 µM to reach a half-maximal effect in assay [2] (EC50). On to Ac-FDA[R8]D[2Nal]AAFV[PyrS″]FWQ-NH2 (staple 4-11; also: later-eluting HPLC peak (staple isomer), Stapled peptide composition) [I-116], for which the EC50 in assay [2] is 3.64 µM.

B14: I-229 (peptide)
peptide: Ac-[αAllylPro]DA[B5(4)][2Pal]EAAFV[S8]FWQ-NH2
modifications: staple 1-4, 4-11; also: separate staple isomer composition
notes: Stapled peptide composition; also called Ac-PL3-Asp-Ala-B5-2pyrA-Glu-Ala-Ala-Phe-Val-S8-Phe-Trp-Gln-NH2
Regarding B14, the half-maximal effective concentration (EC50) in assay [1] stood at 5.81 µM.

(Values after patent publication US20240116985A1 (published 2024).)
